Tests used:
[1] = target: Human OX40 expressed on transfected Jurkat or CHO cells (human) (UniProt P43489); assay: flow cytometry, whole cell binding to human OX40-expressing Jurkat cells, Geo MFI
[2] = target: Human CTLA4 expressed on transfected CHO or Jurkat cells (human) (UniProt P16410); assay: flow cytometry, whole cell binding to human CTLA4-expressing Jurkat cells, Geo MFI
Sequence of Human CTLA4 expressed on transfected CHO or Jurkat cells (human) (P16410 36-222 limits assumed): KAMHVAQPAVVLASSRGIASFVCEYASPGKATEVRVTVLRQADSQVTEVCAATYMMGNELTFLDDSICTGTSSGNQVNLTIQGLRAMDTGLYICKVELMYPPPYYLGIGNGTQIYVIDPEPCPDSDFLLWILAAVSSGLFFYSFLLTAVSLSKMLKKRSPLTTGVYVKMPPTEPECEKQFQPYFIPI

Sequence of Human OX40 expressed on transfected Jurkat or CHO cells (human) (P43489 29-277 limits assumed): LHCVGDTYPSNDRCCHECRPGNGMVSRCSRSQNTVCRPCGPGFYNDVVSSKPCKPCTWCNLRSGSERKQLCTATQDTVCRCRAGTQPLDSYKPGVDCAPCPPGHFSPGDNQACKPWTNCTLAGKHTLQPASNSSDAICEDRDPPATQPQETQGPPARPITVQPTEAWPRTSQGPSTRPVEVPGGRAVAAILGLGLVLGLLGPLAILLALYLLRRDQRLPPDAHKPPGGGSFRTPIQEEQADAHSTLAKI

EC50 [1]: 10.3 nM
EC50 [2]: 37.4 nM
Substance: ATOR-1015 analog (reference anti-OX40/CTLA4 bispecific antibody synthesized in-house)

From patent US20240383996A1
